Key:
GAL4 reporter = assay: GAL4 DBD-TIF2 fusion CAT reporter transactivation assay; type: cell-based; conditions: Cos-1 and/or HeLa cells
Outline: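 Transiently transfected HeLa and Cos-1 cells received plasmids (3 μg; 1-10 μg in titration) expressing TIF2 regions or mutants fused to GAL4 DBD(1-147), plus 1 μg (17m)5-G-CAT reporter. CAT activity measured by TLC phosphoimaging or CAT ELISA, normalized to cotransfected β-galactosidase, expressed as fold over GAL4 DBD alone; mean of ≥3 experiments.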

[1] = test system: CBP (residues 1872 to 2165); assay: GST-CBP pull-down of TIF2 polypeptides; type: binding
Method: (d) Mapping of the CBP-interacting domain of TIF2. GST puld own experiments were performed with ^35S-labeled in-vitro-translated TIF2 polypeptides and bacterially produced GST and GST-CBP (expressing CBP residues 1872 to 2165).
(c) Interaction of TIF2 AF-1 mutants with CBP in vitro. GST pull-down experiments were performed with ^35S-labeled in-vitro-translated GAL-TIF2 fusion proteins and bacterially produced GST and GST-CBP.
(c) Interaction of TIF2.13 wildtype and TIF2.13 mutants with CBP in vitro. GST pull-down experiments were performed with ^35S-labeled in-vitro-translated VP16-TIF2.13 polypeptides and bacterially produced GST and GST-CBP.
(§1) Furthermore, it was reported that SRC-1, which belongs to the same gene family as TIF2, interacts with CBP and p300 (Kamei, Y. et al., Cell 85:403-414 (1996); Yao, T. P. et al., Proc. Natl. Acad. Sci. USA 93:10626-10631 (1996); Hanstein, B., et al., Proc. Natl. Acad Sci USA 93:11540-11545 (1996)). Using GST-fusion protein-based interaction and animal cell-based two hybrid assays, we therefore analyzed whether TIF2 could also interact with CBP. […] A GST-CBP fusion protein was expressed in E. coli and used for puU-down assays with in vitro translated TIF2 polypeptides (FIG. 7d).

GAL-CBP = assay: two hybrid analysis of CBP-TIF2 interaction in HeLa cells; type: cell-based
Method: (e) Two hybrid analysis of the CBP-TIF2 interaction in mammalian cells in vivo. HeLa cells were transfected with 0.2 μg of the GAL4 or GALA-CBP (expressing CBP residues 1872 to 2165) expression vectors together with 0.2 μg of the VP16 or VPI6-TF2 expression vectors in the presence of 2 μg of (17m)5-TATA-CAT reporter plasmid. Fold induction relative to the GAL-CBP activity is indicated. The mean of three experiments is shown; in each case, values varied by less than ±20%.
HeLa cells were transfected with 0.2 μg of GAL4 or GAL-CBP expression vectors together with 0.2 μg of VP16 or VP16-TIF2.13 expression vectors in the presence of 1 μg of (17m)5-TATA-CAT reporter plasmid. Data are represented as fold induction of the activity seen with GAL-CBP alone. The mean and standard, deviation obtained from ten experiments are shown. The expression levels were confirmed by Western blotting with antibodies directed against GAL4 DBD and VP16 AAD (data not shown).
as §1

histone = histone acetylase activity of purified TIF2 fragments; type: biochemical; conditions: bacterially-expressed purified fragment
Excerpt: TIF2 can apparently fulfill at least two mediator functions, (i) as a “bridging factor” between the AF-2 function of nuclear receptors and CBP via its AD1 activation domain and (ii) as a transcriptional mediator through as yet unknown CBP binding-independent route(s) via its AD2 function.

ER (HEGO) = assay: yeast PL3 (ERE)3-URA3 reporter, OMP decase activity, ER; type: cell-based, human; conditions: with estradiol
Excerpt: (§2) FIG. 11. The TIF2.1 coactivator fragment efficiently stimulates the ligand-dependent AF-2 of ER, RAR and RXR in yeast. No stimulatory effect of TIF2.1 on the isolated AF-1 of ER (HE15) is observable. Plasmids expressing different regions of hERα (white), hRARα (grey) and mRXRα (black) fused to the ER DBD (hERα(C)) were introduced into the yeast reporter strain PL3 (α) together with TIF2.1 as indicated. […] OMP decase activities determined on each cell-free extract are expressed in nmoyrnin/mg protein; the mean and standard deviation of at least four experiments are shown.
(§3) We therefore investigated whether TIF2 could enhance transcriptional activation by various NR constructs expressed in S. cerevisiae. Both, NRs and TIF2.1 were expressed from multicopy plasmids in the yeast strain PL3 (a), which contains a URA3 reporter gene under the control of three estrogen response elements ((ERE)3-URA3; Pierrat, B. et al., Gene 119:237-245 (1992)).
(§4) In yeast, the hERa constructs were expressed from the following YEp90-based plasmids: HEGO (hERα, YEp90-HEGO, amino acids 1-595), HE15 (YEp90-HE15, amino acids 1-282), and HEG19 (YEp90-HEG19, amino acids 179-595) (all Pierrat, B. et al., Gene 119:237-245 (1992)), HE179-338 (YEp90-HE179-338; Pierrat, B. et al., Gene 143:193-200 (1994)). […]

RXRα AF-2 = assay: yeast PL3 (ERE)3-URA3 reporter, OMP decase activity, RXRα; type: cell-based, mouse; conditions: with ligand
Excerpt: as §2, §3, §4

RARα LBD = assay: yeast PL3 (ERE)3-URA3 reporter, OMP decase activity, RARα; type: cell-based, human; conditions: absence of ligand
Excerpt: as §2, §3, §4

ER, RARα and RXRα LBDs = assay: GST pull-down of TIF2 polypeptides with NR LBDs; type: binding; conditions: in vitro, with or without 10^−6 M ligand
Method: (b) Mapping of the nuclear receptor-interacting domain of TIF2.
(c-d) Interaction of TIF2 NID mutants with NRs in vitro. […] For quantification of point mutant interactions, see below.
(e-f) Effect of TIF2 NID point mutations on stimulation of NR AF-2 activity. Cos-1 cells were cotransfected with 1 μg of the (17m)5-TATA-CAT reporter, 0.2 μg of GAL-hERα(EF) or GAL-mRXRα(DE), and 2.5 μg of the TIF2.1 wildtype or mutated fragments, as indicated. […] Each bar represents the mean value obtained from at least three (interaction) or at least four (transactivation) experiments, respectively; standard deviations are indicated. Note that the absolute values for TIF2.1 wildtype activity varied by ±16% when cotransfected with GAL-hERα(EF) and by ±34% when cotransfected with GAL-mRXRα(DE). In the in-vitro-interaction assays, the affinity of the TIF2.1 wildtype standard varied by less than ±25%. Expression levels of TIF2 mutants in the cells were verified by Western blot (not shown) with mouse monoclonal antibody 3Ti3F1, which is directed against an epitope outside the mutated area.
To further delineate the TIF2 NR interaction domain (NID), we studied the interaction between a series of TIF2 deletion mutants and the ER or RARα LBDs, using GST-fusion protein-based in vitro assays. In both cases, an NWD was mapped to the central region of TIF2 (amino acids 624-869 in mutant TIF2.5; see FIGS. 7a and b). No additional NWD could be identified in the N- or C-termini of TIF2 (FIGS. 7a and b; mutants TIF2.0, TIF2.2 and TIF2.7). Note that, in contrast, SRC-1, a paralogue of TIF2, apparently harbours two distinct non-contiguous NIDs located in the central and C-terminal regions (Onate, S. A. et al., Science 270:1354-1357 (1995), Yao, T. P. et al., Proc. Natl. Acad. Sci. USA 93:10626-10631 (1996); Zhu, Y. et al., Gene Epression 6:185-195 (1996)).

[2] = test system: AF-2 activity of ER, RXRα and RARα; assay: dominant negative effect on NR AF-2 activity, (17m)5-TATA-CAT reporter; type: cell-based; conditions: HeLa and Cos-1 cells
Excerpt: FIG. 12(a-d). The isolated nuclear receptor-interacting domain (ND) of TIF2 acts dominant-negatively on the transcriptional activation by the ER, RXR and RAR LBDs. The mean value of induction obtained from the quantitation of at least three experiments (relative to the respective receptor LBD activity in absence of recombinant TIF2) is indicated below each panel. Expression levels of TIF2, TIF2.1 and TIF2.5 were routinely verified by Western blot with mouse monoclonal antibody 3Ti3C11 directed against a region of TIF2.5 (not shown).
(b-d) Full length TIF2 and the coactivator fragment TIF2.1 enhance, whereas the nuclear receptor interacting domain TJF2.5 blocks the activity of the ER, RXR and RAR LBDs. Cos-1 and HeLa cells were cotransfected with 1 μg of the (17m)5-TATA-CAT reporter and 0.2 μg of the expression vector encoding the respective GAL DBD-fusion of hERα(EF), mRXRα(DE) or mRARα(DEF).
Assuming that TIF2 or coactivators recognizing the TIF2 interacting surface on NR LBDs, generally mediate the AF-2 function of NRs, the NID containing TIF2.5 should exert its dominant negative activity not only on ER, but also on other NRs, independently of the cellular context. We therefore analyzed the effect of TIF2.5 on the AF-2 activity of ER, RXRα and RARα in HeLa and in Cos-1 cells (FIGS. 12b-d).

Molecule | transcriptional activation of GAL4 reporter by GAL4 DBD fusion (GAL4 reporter) | binding to GST-CBP in vitro [1] | interaction with GAL-CBP, two hybrid (GAL-CBP) | histone acetylase activity (histone) | effect on transcriptional activity of ER (ER (HEGO)) | effect on AF-2 activity of liganded RXRα (RXRα AF-2) | effect on transactivation by RARα LBD (RARα LBD) | binding to NRs (ER, RARα LBDs) (ER, RARα and RXRα LBDs) | effect on NR AF-2 activity [2]
TIF2.1: cytoplasmic TIF2 coactivator fragment, amino acids 624 to 1287 of SEQ ID NO:2 (protein) ERADGQSRLHDSKGQTKLLQLLTTKSDQMEPSPLASSLSDTNKDSTGSLPGSGSTHGTSLKEKHKILHRLLQDSSSPVDLAKLTAEATGKDLSQESSSTAPGSEVTIKQEPVSPKKKENALLRYLLDKDDTKDIGLPEITPKLERLDSKTDPASNTKLIAMKTEKEEMSFEPGDQPGSELDNLEEILDDLQNSQLPQLFPDTRPGAPAGSVDKQAIINDLMQLTAENSPVTPVGAQKTALRISQSTFNNPRPGQLGRLLPNQNLPLDITLQSPTGAGPFPPIRNSSPYSVIPQPGMMGNQGMIGNQGNLGNSSTGMIGNSASRPTMPSGEWAPQSSAVRVTCAATTSAMNRPVQGGMIRNPAASIPMRPSSQPGQRQTLQSQVMNIGPSELEMNMGGPQYSQQQAPPNQTAPWPESILPIDQASFASQNRQPFGSSPDDLLCPHPAAESPSDEGALLDQLYLALRNFDGLEEIDRALGIPELVSQSQAVDPEQFSSQDSNIMLEQKAPVFPQQYASQAQMAQGSYSPMQDPNFHTMGQRPSYATLRMQPRPGLRPTGLVQNQPNQLRLQLQHRLQAQQNRQPLMNQISNVSNVNLTLRPGVPTQAPINAQMLAQRQREILNQHLRQRQMHQQQQVQQRTLMMRGQGLNMTPSMVAPSGMPATMS | strongly transactivated | also interacted with GST-CBP | scored positive | none | further enhanced | stimulated | very efficiently enhanced | – | –
TIF2.5: TIF2 fragment amino acids 624-869, isolated NID (protein) ERADGQSRLHDSKGQTKLLQLLTTKSDQMEPSPLASSLSDTNKDSTGSLPGSGSTHGTSLKEKHKILHRLLQDSSSPVDLAKLTAEATGKDLSQESSSTAPGSEVTIKQEPVSPKKKENALLRYLLDKDDTKDIGLPEITPKLERLDSKTDPASNTKLIAMKTEKEEMSFEPGDQPGSELDNLEEILDDLQNSQLPQLFPDTRPGAPAGSVDKQAIINDLMQLTAENSPVTPVGAQKTALRISQST | cannot activate transcription | – | – | – | – | – | – | can bind to NRs | dose-dependent inhibition of the NR AF-2 activity

Source: US6861508B2, “Transcriptional intermediary factor-2” (Institut National de la Sante et de la Recherche Medicale, priority 1996, dated 2005)
